Values of other authors, collected in paper PMC3078936.

Biological target: Bmf (Homo sapiens)
Details: cited from earlier work

Sequence of DYNLL1 (P63167 whole entry): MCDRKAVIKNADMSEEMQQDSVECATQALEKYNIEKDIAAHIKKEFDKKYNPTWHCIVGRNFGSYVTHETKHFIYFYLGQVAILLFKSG

DYNLL1 (from UniProt P63167)
Kd: 750 nM
